From the supplement of paper PMC11780869

Tested on: Bacillus subtilis
Experiment: cleaved RNA product abundance (RNA/gDNA barcode ratio) relative to median wild-type variant (ratio to wild type); higher = more accumulation of the downstream cleavage product
Description: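 MPRA in B. subtilis. Mutagenized RNase Y cleavage-site regions (9% mutation rate) were inserted into a barcoded reporter mRNA (truncated aprE or tetM). Cells were grown in LB at 37°C to OD600 0.3. The cleaved RNA isoform was gel-purified and its barcodes counted; the RNA:gDNA barcode ratio was normalised to the median wild-type variant, and the median over barcodes is reported per variant. The printed sequence is the variable window only; the reporter flanks are not printed.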

[1] = experiment (reporter, strain, medium): exp 4a: truncated aprE reporter, strain BJT201 with 2% xylose (RNase J1 expressed), cleavage site: cggR-gapA (positions -7 to +36 mutated)
[2] = experiment (reporter, strain, medium): exp 8a: truncated aprE reporter, strain BJT201 with 2% xylose (RNase J1 expressed), cleavage site: glnRA (positions -5 to +31 mutated)
[3] = experiment (reporter, strain, medium): exp 2b: truncated aprE reporter, strain BJT200, cleavage site: cggR-gapA (positions -7 to +36 mutated)

Sequence	cleaved RNA product abundance [1]	cleaved RNA product abundance [3]	also measured
ACAGACGAAGGAGCCGCAAAAAAGTTATTAAGGGATGAATAATTCCTCTATATAAATATCTCTCACTTATTTAAA	0.264	–	–
ACAGACGAAGGAGCCGCAAAGAATTTATTAAGGGATGAATAATCCTTCAATATAAATATCTCTCACTTATTTAAA	0.397	–	–
CGACATGTCCCGCTTCTTTCATTAATCCGTCAACAACTGTTTTGCTATATACATTTACCTTTTAAGAGGAGGAAT	–	–	cleaved RNA product abundance [2]: 0.384
ACAGACGAAGGAGCCGCAAAGAAGTTATTAAGAGATGAATAATCCCTCAATATAAATATCTCTCACTATTTAAAG	0.151	–	–
ACAGACGAAGGAGCCGCAAAGAAGTTATTAAGGGATGAATAATTCATCAATATAAATATCTCTCACTTATTTAAA	0.201	–	–
CGACATGTCCCGCTTCTTTCATTAATCCGTTAGCAACTGTTTTGCTATATAAATTTACCTTTTAAGAGGAGGAAT	–	–	cleaved RNA product abundance [2]: 0.938
ACAGACGAAGGAGCCGCAAACAAGTTATTAAAGGATGAATAATCCCTCAATATAAATATCTCTCACTTATTTAAA	0.116	0.121	–
ACAGACGAAGGAGCCGCAAAGAAGTTAATAAGGGATGAATAATCCCTCAATACAAATATCTCTCACTTATTTAAA	–	0.0847	–
ACAGACGAAGGAGCCGCAAAGAAGTTATTATGAGATGAATAATCCCTCAATATAAATATCTCTCACTTATTTAAA	0.147	0.0958	–
ACAGACGAAGGAGCCGCAAAGAAGTTATTAAGGAATGAATAATCCCTCTATATAAATATCTCTCACTTATTTAAA	0.119	0.12	–
ACAGACGAAGGAGCCGCAAAGAAGTTATTAAGTGATGTATAATCCCTCAATATAAATATCTCTCACTTATTTAAA	0.144	0.088	–
ACAGACGAAGGAGCCGCAAAGAATTTATTAAGGGATGAATCATCCCTCAATATAAATATCTCTCACTTATTTAAA	0.545	–	–
ACAGACGAAGGAGCCGCAAAGAAGTTATTAAGGGATTAATAATCCCTCAATATAAATATCTCTCACTTATTTAAA	0.958	0.996	cleaved RNA product abundance (experiment (reporter, strain, medium): exp 6: tetM reporter, strain 168, cleavage site: cggR-gapA (positions -7 to +36 mutated)): 1.09
ACAGACGAAGGAGCCGCAAAGAAGTTATTAAGGGATGAATTATCCCTCAACATAAATATCTCTCACTTATTTAAA	0.284	0.179	–
ACAGACGAAGGAGCCGCAAGGAAGTTATTAAGGGACGAATAATCCCTCAATATAAATATCTCTCACTTATTTAAA	0.614	–	–
CGACATGTCCCGCTTCTTTCATTAATCCGTTAGCAACTGTTTTGCTATATCCATTTACCTTTTAAGAGGAGGAAT	–	–	cleaved RNA product abundance [2]: 0.167
ACAGACGAAGGAGCCGCAAAGAAGTTATTAACGGATGAATAATCCCTCAATATACATATCTCTCACTTATTTAAA	0.231	–	–
ACAGACGAAGGAGCCGCAAAGAAGTTATTAAGGGATGAATAATCCCGCAATATAGATATCTCTCACTTATTTAAA	0.279	–	–
CGACATGTCCCGCTTCTTTCATTAATCTGTTAGCAACTGTTTTGATATATACATTTACCTTTTAAGAGGAGGAAT	–	–	cleaved RNA product abundance [2]: 0.562
ACAGACGAAGGAGCCGCAGAGAAGTTATTAAGGGATGAATAATCCCTCAGTATAAATATCTCTCACTTATTTAAA	0.337	–	–
CGACATGTCCCGCTTCTTTCATTAATCCGTTACCAACTGTTTTGCTATATACATTTACATTTTAAGAGGAGGAAT	–	–	cleaved RNA product abundance [2]: 0.209
CGACATGTCCCGCTTCTTTCATTAAACCGTTAGCAACTGTTTAACTATATACATTTACCTTTTAAGAGGAGGAAT	–	–	cleaved RNA product abundance [2]: 0.444
ACAGACGAAGGAGCCGCAAAGAAGTTAAAAAGGGATGAATAATCCCTCAATATAAATATCTCTCACTTATTTAAA	0.392	0.268	–
ACAGACGAAGGAGCCGCAAAGAAGTTATTAAGAGATGAATTATCCCTCAATATAAATATCTCTCACTTATTTAAA	0.183	0.102	–
CGACATGTCCCGCTTCTTTCATTAATCCGTTAGCAACTGTTTTGCTATATAAATTTACGTTTTAAGAGGAGGAAT	–	–	cleaved RNA product abundance [2]: 1.02
